Experimental data as given in patent US20250122298A1 (OSSIANIX, published 2025).

Legend:
[1] = target: T1, cell surface human TfR1 on hCMEC/D3 and SH-SY5Y cells (human, UniProt P02786 1-760); test: flow cytometry on hCMEC/D3 cells on ice, binding to cell surface TfR1, anti-hFc Alexa647
T1 construct: whole, on cells; Endogenous receptor on the cell lines; also called cell surface TfR1; cell-surface hTfR1
Experimental: Functional activity of the fully deimmunized variants was assessed using the hCMEC/D3 human endothelial cell line and the SY-SH5Y human neuronal cell line. Binding to hCMEC/D3 cells was assessed by incubation with serial antibody dilutions for 1h on ice to avoid internalization. The cells were fixed and binding to cell surface TfR1 was measured by flow cytometry. […] Internalization via cell-surface hTfR1 was assessed using the hCMEC/D3 and SY-SH5Y cell lines by incubation with the antibodies for 1 hour at 37° C.
Flow cytometry. hCMEC/D3 cells were seeded onto V-bottom 96-well plates at a density of 1×10⁴ cells/well. All incubations were carried out on ice to prevent internalization. After blocking in PBS containing 10% BSA (FACS buffer), cells were incubated with serial dilutions of TXP1. Cells were stained with propidium iodine (PI; Biolegend) for 20 min, followed by anti-hFc conjugated to Alexa647 diluted 1:300 (Jackson ImmunoResearch) for 30 min. After fixation in 4% PFA for 15 min, the cells were analyzed on a CytoFlex flow cytometer (Beckman Coulter). Gating of cells stained with secondary antibody alone was used to set the negative threshold for and the fluorescence intensity of approximately 1000 cells per condition was measured. EC50 values were calculated using a four parametric non-linear regression model.

recombinant human TfR-1 [2] = target: T2, recombinant human TfR-1 (human, UniProt P02786 89-760, limits assumed); test: SPR Biacore T200, His-tagged TfR-1 captured by anti-His, single cycle kinetics, 1:1 model
T2 construct: also called hTfR-1; hTfR1
T2 sequence (P02786 89-760 limits assumed): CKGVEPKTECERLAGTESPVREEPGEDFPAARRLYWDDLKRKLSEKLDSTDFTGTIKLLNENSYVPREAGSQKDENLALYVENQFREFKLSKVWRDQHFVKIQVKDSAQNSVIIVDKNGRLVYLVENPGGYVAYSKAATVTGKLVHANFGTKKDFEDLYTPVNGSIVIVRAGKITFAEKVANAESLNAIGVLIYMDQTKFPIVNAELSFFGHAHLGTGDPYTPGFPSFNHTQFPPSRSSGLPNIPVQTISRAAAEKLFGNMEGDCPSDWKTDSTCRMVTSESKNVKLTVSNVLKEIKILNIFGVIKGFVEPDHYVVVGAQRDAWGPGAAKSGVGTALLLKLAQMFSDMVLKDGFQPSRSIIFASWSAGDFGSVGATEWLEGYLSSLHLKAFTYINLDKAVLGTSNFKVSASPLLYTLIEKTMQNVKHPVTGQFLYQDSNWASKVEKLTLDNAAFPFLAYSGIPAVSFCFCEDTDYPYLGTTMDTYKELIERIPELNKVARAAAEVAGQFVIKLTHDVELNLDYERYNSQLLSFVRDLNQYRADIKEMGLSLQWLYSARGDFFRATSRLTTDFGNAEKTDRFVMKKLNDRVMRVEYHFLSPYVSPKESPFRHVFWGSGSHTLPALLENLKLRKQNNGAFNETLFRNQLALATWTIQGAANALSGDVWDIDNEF
Experimental: (§1) Binding kinetics. Binding kinetics of TXP1 and A06 VNAR antibodies were determined by surface plasmon resonance (SPR) using a Biacore T200 (GE Healthcare). A His-capture kit (GE Healthcare) was used to immobilize anti-His antibodies on CM5 chips (as recommended by the manufacturer). His-tagged recombinant cynomolgus and human TfR-1 in 0.1% BSA in HBS-EP+ buffer (GE Healthcare) was captured at flow rate 10 μl/min. Analyte binding was measured using the single cycle kinetic SPR method on a Biacore T200. Analytes were injected at increasing concentrations (0.98, 3.9, 15.6, 62.5 and 250 nM) in HBS-EP+ at flow rate 30 μl/min. A flow cell without TfR-1 captured served as a reference. The chips were regenerated in 10 mM glycine-HCl, pH 1.5. Sensorgrams were fitted using 1:1 binding model and kinetic constants determined using Biacore T200 Evaluation software (GE Healthcare). Association and dissociation were measured for 360s and 1500s respectively, with flow rate at […].

[3] = target: T3, recombinant cynomolgus TfR-1 (cynomolgus, UniProt H9EXL1 89-760 (rhesus entry)); test: as above
T3 construct: also called cTfR-1; cTfR1
T3 sequence (chain, as listed by the source): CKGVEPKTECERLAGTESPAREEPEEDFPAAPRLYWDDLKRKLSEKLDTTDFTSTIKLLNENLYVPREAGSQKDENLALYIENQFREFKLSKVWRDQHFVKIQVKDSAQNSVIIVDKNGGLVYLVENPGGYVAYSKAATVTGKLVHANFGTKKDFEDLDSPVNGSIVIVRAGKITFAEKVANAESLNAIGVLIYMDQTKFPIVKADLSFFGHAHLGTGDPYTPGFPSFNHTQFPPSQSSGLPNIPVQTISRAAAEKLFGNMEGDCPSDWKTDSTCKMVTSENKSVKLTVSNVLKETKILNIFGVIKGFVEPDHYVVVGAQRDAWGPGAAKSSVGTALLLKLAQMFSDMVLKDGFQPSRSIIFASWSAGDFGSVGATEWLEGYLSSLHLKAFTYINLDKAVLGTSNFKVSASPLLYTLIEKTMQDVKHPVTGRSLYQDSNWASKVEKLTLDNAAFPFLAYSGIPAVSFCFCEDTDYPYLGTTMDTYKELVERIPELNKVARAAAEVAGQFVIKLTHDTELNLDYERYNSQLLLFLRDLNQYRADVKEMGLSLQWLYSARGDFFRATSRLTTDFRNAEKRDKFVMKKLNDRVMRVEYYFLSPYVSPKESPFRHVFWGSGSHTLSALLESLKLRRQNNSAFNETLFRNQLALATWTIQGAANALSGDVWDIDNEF
Experimental: as §1

recombinant human TfR-1 [4] = target: T2, recombinant human TfR-1; test: ELISA, plate-coated recombinant hTfR1, anti-hFc HRP detection
Experimental: (§2) TfR1 ELISA. Nunc MaxiSorp plates were coated with 100 ul of 1 μg/ml of in-house purified recombinant human, cynomolgus TfR1 or HSA and incubated at 4° C. overnight. Plates were incubated with blocking buffer (2.5% non-fat dry milk in PBST) for 1 hr at RT. Serial dilutions of TXP1, TXPID1 or TXP1D4 were mixed with non-fat dry milk in PBST to a final concentration of 2.5% and incubated for 30 min. Blocked VNAR antibody solutions (100 μl) were transferred to the blocked plates and incubated for 1 hr. Plates were washed with PBST and incubated with anti-hFc HRP-conjugated antibody diluted 1:5,000 (Sigma) in blocking buffer for 30 min. Plates were washed and developed with SureBlue TMB substrate. Were indicated the velocity of colorimetric reaction development was measured in the kinetic mode at 370 nm and the maximum peak was used for quantitation (Vmax at 370 nm). Alternatively, the TMB reaction was stopped with 1% HCl and absorbance was measured at 450 nm (OD at 450 nm).

HSA = target: T4, HSA (human, UniProt P02768 25-609); test: ELISA, plate-coated HSA as negative control, anti-hFc HRP detection
T4 construct: also called human serum albumin (negative control)
T4 sequence (P02768 25-609 limits assumed): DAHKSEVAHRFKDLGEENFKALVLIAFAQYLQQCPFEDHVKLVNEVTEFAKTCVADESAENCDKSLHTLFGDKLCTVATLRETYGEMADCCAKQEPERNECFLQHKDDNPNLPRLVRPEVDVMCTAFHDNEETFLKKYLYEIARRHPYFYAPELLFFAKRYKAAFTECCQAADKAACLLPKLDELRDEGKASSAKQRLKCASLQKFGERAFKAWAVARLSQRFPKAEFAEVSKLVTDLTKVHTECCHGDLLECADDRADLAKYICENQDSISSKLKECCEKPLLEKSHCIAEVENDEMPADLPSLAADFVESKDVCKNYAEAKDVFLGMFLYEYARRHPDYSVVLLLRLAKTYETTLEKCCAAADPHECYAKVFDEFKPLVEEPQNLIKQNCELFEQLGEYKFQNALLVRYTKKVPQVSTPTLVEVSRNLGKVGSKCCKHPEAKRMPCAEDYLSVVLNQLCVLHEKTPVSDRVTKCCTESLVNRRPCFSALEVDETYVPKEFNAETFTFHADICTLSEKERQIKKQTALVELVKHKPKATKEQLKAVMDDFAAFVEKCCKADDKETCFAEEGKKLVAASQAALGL

[5] = target: T3, recombinant cynomolgus TfR-1; test: ELISA, plate-coated recombinant cTfR1, anti-hFc HRP detection
Experimental: as §2

[6] = target: T3, recombinant cynomolgus TfR-1; test: SPR Biacore T200, multi-cycle kinetics, 1:1 model
recombinant human TfR-1 [7] = target: T2, recombinant human TfR-1; test: ELISA, plate-coated recombinant TfR-1, anti-hFc HRP detection
Experimental: (§3) TfR-1 binding ELISA. Nunc MaxiSorp plates were coated with 100 μl of 1 μg/ml of in-house purified recombinant human, mouse, rat and cynomolgus TfR-1 and incubated at 4° C. overnight. Plates were incubated with blocking buffer (2.5% non-fat dry milk in PBST) for 1 h at RT. Serially-diluted TXP1 was mixed with non-fat dry milk in PBST to a final concentration of 2.5% and incubated for 30 min. Blocked TXP1 solutions (100 μl) were transferred to the blocked plates and incubated for 1 hr. Plates were washed with PBST and incubated with anti-hFc HRP-conjugated antibody diluted 1:5,000 (Sigma) in blocking buffer for 30 min. Plates were washed and developed with SureBlue™ TMB substrate, the reaction stopped with 1% HCl and absorbance measured at 450 nm.

[8] = target: T3, recombinant cynomolgus TfR-1; test: as above
Experimental: as §3

recombinant rat TfR-1 = target: T5, recombinant rat TfR-1 (rat, UniProt Q99376 87-761, limits assumed); test: as above
T5 construct: also called rTfR-1
T5 sequence (Q99376 87-761 limits assumed): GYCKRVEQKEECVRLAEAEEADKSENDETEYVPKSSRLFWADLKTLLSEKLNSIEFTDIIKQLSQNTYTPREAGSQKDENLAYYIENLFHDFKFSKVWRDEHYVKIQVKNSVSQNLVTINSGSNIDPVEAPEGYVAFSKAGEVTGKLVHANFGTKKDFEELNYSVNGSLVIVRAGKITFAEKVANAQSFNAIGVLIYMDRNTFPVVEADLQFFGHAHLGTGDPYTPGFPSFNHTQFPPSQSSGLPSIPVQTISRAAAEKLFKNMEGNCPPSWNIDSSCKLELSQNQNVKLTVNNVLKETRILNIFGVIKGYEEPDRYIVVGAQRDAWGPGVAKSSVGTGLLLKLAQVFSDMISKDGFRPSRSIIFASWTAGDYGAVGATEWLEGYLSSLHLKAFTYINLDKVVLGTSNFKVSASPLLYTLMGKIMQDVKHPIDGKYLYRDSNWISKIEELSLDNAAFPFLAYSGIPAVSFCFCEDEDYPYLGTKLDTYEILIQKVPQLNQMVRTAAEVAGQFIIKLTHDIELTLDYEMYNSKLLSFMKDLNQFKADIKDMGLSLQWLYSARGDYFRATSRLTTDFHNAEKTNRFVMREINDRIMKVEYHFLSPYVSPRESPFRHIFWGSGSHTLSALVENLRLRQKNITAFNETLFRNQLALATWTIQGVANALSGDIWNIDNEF
Experimental: as §3

recombinant mouse TfR-1 = target: T6, recombinant mouse TfR-1 (mouse, UniProt Q62351 89-763, limits assumed); test: as above
T6 construct: also called mTfR-1
T6 sequence (Q62351 89-763 limits assumed): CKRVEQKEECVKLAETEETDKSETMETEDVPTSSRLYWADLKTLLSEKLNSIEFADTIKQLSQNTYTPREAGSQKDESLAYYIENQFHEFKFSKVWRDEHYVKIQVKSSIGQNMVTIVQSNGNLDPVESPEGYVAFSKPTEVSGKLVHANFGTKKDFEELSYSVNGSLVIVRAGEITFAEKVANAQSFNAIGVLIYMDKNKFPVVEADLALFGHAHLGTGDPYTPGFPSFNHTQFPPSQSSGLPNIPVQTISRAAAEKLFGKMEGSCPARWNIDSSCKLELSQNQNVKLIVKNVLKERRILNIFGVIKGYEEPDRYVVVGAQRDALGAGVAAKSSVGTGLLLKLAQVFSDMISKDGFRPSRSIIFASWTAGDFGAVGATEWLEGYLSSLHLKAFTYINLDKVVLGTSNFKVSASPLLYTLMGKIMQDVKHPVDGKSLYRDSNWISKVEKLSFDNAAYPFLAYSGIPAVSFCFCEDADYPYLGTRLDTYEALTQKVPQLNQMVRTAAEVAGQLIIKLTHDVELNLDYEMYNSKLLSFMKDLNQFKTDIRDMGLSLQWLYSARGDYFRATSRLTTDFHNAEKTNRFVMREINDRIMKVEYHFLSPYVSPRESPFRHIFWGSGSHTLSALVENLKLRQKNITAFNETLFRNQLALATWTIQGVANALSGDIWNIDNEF
Experimental: as §3

recombinant human TfR-1 [9] = target: T2, recombinant human TfR-1; test: SPR Biacore T200, His-tagged TfR1 captured by anti-His, multi-cycle kinetics, 1:1 model
Experimental: Binding kinetics. Binding kinetics of TXP1, TXP1D1 and TXP1D4 were determined by surface plasmon resonance (SPR) using a Biacore T200 (GE Healthcare). A His-capture kit (GE Healthcare) was used to immobilize anti-His antibodies on CM5 chips (as recommended by the manufacturer). His-tagged recombinant hTfR1 in 0.1% BSA in HBS-EP+ buffer (GE Healthcare) was captured at flow rate 10 μl/min. Analyte binding was measured using the multi-cycle kinetic SPR method. Starting analyte concentrations at 400 nM and serially diluted in 1:4 in seven steps. Association and dissociation were measured for 360s and 1500s respectively, with flow rate at 30 μl/min. The chips were regenerated in 10 mM Glycine-HCl, pH 1.5. Sensorgrams were fitted using 1:1 binding model and kinetic constants determined using Biacore T200 Evaluation software (Cytiva).

T1 sequence (P02786 whole entry): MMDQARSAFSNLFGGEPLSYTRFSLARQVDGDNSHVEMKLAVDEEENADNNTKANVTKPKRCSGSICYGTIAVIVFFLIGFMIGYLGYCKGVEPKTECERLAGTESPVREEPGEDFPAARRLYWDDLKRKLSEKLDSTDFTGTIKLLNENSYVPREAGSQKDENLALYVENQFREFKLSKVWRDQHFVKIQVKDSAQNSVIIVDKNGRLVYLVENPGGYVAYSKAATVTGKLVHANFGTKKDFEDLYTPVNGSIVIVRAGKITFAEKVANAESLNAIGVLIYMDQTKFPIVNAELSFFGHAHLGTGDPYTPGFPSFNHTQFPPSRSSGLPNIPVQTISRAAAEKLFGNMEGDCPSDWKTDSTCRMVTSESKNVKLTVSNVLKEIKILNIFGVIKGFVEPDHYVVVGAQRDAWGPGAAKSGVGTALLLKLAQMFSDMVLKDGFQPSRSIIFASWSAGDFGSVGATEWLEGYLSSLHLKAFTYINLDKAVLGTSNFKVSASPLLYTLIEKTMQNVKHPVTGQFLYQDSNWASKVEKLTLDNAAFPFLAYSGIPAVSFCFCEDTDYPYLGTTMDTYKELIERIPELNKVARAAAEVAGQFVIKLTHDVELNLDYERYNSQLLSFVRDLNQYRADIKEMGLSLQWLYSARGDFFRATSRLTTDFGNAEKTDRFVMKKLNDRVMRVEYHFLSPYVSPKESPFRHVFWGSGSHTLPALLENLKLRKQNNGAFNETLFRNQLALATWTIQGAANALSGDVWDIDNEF

- EC50 [1]: 2.2 nM
- Kd (recombinant human TfR-1 [2]): 1.03 nM
- koff (recombinant human TfR-1 [2]): 0.000134 s⁻¹
- kon (recombinant human TfR-1 [2]): 129000 M⁻¹ s⁻¹
- Kd [3]: 3.14 nM
- koff [3]: 0.000365 s⁻¹
- kon [3]: 116000 M⁻¹ s⁻¹
- EC50 (recombinant human TfR-1 [4]): 1.9 nM
- binding result (HSA): no binding
- EC50 [5]: 1.4 nM
- Kd [6]: 1.8 nM
- koff [6]: 9.6e-05 s⁻¹
- kon [6]: 53000 M⁻¹ s⁻¹
- EC50 (recombinant human TfR-1 [7]): 1.5 nM
- EC50 [8]: 1.6 nM
- binding result (recombinant rat TfR-1): no binding
- binding result (recombinant mouse TfR-1): no binding
- Kd (recombinant human TfR-1 [9]): 5.1 nM
- koff (recombinant human TfR-1 [9]): 0.00027 s⁻¹
- kon (recombinant human TfR-1 [9]): 54000 M⁻¹ s⁻¹
B1: TXP1 (Fc fusion)
chain: ARVDQTPQTITKETGESLTINCVLRDSNCALSSTYWYRKKSGSTNEENISKGGRYVETVNSGSKSFSLKINDLTVEDSGTYRCNVVGTWCMSWRDVYGGGTAVTVNA
notes: Bivalent VNAR-hFc; VNAR at the N-terminus of hFc IgG1; also called VNAR-hFc named TXP1; parental TXP1; not shown: human IgG1 Fc domain (hFc) with attenuated effector function mutations E233P/L234V/L235A/AG236 (deletion of G236)+A327G/
